The results in this text go back to paper PMC4297639 (Nature protocols, 2014).

The assay concerns the target BACE2 (aspartic protease, recombinant, wild-type) (Homo sapiens (assumed; ), UniProt Q9Y5Z0). Nature of the assay: crystal structure.

Sequence of BACE2 (aspartic protease, recombinant, wild-type) (Q9Y5Z0 21-518): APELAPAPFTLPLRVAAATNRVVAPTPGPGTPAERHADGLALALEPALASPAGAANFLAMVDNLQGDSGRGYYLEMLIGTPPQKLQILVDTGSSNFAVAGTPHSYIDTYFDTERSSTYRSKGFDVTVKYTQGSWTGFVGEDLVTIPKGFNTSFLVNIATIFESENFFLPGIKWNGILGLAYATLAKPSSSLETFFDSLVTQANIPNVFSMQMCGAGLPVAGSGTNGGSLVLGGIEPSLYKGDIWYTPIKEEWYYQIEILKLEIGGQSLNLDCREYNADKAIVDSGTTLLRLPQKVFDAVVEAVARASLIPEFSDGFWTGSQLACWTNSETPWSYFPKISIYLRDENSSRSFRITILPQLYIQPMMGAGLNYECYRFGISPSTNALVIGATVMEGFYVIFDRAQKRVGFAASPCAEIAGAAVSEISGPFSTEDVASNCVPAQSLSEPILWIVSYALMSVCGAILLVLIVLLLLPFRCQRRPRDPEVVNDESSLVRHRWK

B1: Nanobody XA4815 (VHH)
VHH: QVQLQESGGGLVQAGGSLRLSCAASGFTFSRAAMRWVRRAPERGLEWVANINAGDGSASYADFVKGRFTASRDKAGNRLYLQMDNLRPNDTAVYYCIYNGHRGQGTQVTVSS
On to B1, for which the binding result is recorded as “binds”.
